The source of these data is patent US20250066499A1 (SUNSHINE GUOJIAN PHARMACEUTICAL SHANGHAI, published 2025).

Assay [1] deals with T1, CD73-ND-Y132A (human, UniProt P21589 27-317).
T1 construct: Alanine mutant of CD73-ND
T1 sequence: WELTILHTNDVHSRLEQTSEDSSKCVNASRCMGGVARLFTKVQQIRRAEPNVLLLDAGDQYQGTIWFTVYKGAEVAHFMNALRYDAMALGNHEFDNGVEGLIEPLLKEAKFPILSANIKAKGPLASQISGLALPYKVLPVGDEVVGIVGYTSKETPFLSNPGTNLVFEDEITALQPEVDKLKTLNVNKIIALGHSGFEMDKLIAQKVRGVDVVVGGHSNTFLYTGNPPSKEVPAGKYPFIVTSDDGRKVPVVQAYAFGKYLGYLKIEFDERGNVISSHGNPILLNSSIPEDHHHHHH
Description: ELISA, high plateau value (OD 450 nm). As to the method: (§1) The ELISA plates were coated with SA protein diluted to 1.5 μg/mL in coating buffer (50 mM carbonate coating buffer, pH 9.6) and incubated overnight at 4° C. The supernatant was discarded, and the plates were washed three times with PBST. Then, 5% skimmed milk powder prepared with PBS was added for blocking and the plates were incubated for 2 h at 37° C. After washing the plates once with PBST, CD73-biotin protein (prepared by biotinylating CD73-His protein according to the EZ-Link NHS-Biotin Reagent instructions) was diluted to 0.5 μg/mL and added at 100 μL/well for incubation at room temperature for 1 h. The plates were washed three times with PBST, and the prepared murine-derived monoclonal antibodies against human CD73 were serially diluted with 1% BSA buffer prepared with PBST and added to the ELISA plates at 100 μl/well. The plates were incubated at 37° C. for 1 h. After washing the plates three times with PBST, HRP-labeled goat anti-mouse IgG secondary antibody was added and the plates were incubated for 30 min at 37° C. After washing the plates three times with PBST, the residual droplets were patted dry on absorbent paper as much as possible. Then, 100 μl of TMB color developing solution was added to each well, and the plates were incubated in the dark at room temperature for 5 min for color development. Subsequently, 50 μl of 2M H₂SO₄ stop solution was added to each well to terminate the substrate reaction. The OD values were read at 450 nm using a multimode microplate reader to analyze the binding ability of the tested antibodies to the target antigen human CD73-His.
(§2) Referring to the experimental method in Example 3, the affinity of 48A11-HuV33 for various mutant proteins of CD73-ND was determined. The SA protein was diluted to 1 μg/mL for coating the ELISA plates, and the biotinylated CD73 protein (CD73-biotin) was used at a concentration of 0.1 μg/mL.

The target in assay [2] is T2, CD73-ND-P134A (human, UniProt P21589 27-317).
T2 construct: Alanine mutant of CD73-ND
T2 sequence: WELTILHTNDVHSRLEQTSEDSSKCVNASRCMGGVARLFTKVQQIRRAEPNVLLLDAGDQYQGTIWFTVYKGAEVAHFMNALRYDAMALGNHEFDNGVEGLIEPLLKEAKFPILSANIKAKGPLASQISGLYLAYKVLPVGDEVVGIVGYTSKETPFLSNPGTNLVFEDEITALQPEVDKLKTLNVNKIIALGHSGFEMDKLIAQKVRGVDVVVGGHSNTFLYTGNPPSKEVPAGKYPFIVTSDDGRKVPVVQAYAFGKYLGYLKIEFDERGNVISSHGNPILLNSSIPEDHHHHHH
Description: ELISA, high plateau value (OD 450 nm). As to the method:
as §1, §2

The target in assay [3] is T3, CD73-ND-Y135A (human, UniProt P21589 27-317).
T3 construct: Alanine mutant of CD73-ND
T3 sequence: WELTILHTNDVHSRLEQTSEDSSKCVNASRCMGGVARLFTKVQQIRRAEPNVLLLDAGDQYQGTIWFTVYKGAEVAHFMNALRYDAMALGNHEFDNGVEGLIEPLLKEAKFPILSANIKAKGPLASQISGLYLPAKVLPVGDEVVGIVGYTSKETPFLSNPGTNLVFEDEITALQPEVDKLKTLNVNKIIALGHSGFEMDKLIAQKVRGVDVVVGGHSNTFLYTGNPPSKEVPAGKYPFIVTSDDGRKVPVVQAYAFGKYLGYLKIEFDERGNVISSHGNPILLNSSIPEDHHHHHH
Description: ELISA, high plateau value (OD 450 nm). The method, then:
as §1, §2

The target of assay [4] is T4, CD73-ND-K136A (human, UniProt P21589 27-317).
T4 construct: Alanine mutant of CD73-ND
T4 sequence: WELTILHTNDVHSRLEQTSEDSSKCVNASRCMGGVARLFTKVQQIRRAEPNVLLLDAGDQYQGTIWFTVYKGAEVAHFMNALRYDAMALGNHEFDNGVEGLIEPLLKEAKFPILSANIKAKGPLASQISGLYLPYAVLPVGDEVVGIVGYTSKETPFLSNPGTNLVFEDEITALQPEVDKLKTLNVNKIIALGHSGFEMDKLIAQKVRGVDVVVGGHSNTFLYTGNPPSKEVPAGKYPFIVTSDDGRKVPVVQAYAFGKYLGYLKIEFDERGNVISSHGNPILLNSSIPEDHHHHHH
Description: ELISA, high plateau value (OD 450 nm). The method, then: as §1, §2
Background: In an ELISA, binding on a coated surface is turned into a signal by an enzyme label.

The target of assay [5] is T5, CD73-ND-V137A (human, UniProt P21589 27-317).
T5 construct: Alanine mutant of CD73-ND
T5 sequence: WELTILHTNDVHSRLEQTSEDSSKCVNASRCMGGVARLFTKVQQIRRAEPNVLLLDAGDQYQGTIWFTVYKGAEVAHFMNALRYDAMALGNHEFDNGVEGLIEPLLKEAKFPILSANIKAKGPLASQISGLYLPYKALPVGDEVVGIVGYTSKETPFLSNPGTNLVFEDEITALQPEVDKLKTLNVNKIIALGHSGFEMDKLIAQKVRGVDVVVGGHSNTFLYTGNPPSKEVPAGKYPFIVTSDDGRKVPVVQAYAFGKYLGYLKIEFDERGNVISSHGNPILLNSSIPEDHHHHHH
In words: ELISA, high plateau value (OD 450 nm). The method, then:
as §1, §2

Assay [6] has as its target T6, CD73-ND-L138A (human, UniProt P21589 27-317).
T6 construct: Alanine mutant of CD73-ND
T6 sequence: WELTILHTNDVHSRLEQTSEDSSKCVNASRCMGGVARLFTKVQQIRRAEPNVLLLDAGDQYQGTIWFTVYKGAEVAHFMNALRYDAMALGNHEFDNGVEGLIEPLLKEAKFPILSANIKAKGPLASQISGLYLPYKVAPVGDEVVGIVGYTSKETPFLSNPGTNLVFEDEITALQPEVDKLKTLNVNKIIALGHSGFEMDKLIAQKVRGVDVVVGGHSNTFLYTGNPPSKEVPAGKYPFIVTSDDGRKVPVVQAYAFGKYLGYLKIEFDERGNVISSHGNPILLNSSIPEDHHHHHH
In words: ELISA, high plateau value (OD 450 nm). As to the method: as §1, §2

Assay [7] has as its target T1, CD73-ND-Y132A. Description: ELISA; decline multiple of EC50 against CD73-ND. The method, then: as §1, §2

B1: 48A11-HuV33 (antibody, human IgG4, V domains shown)
VH: QVQLVQSGAEVKKPGASVKVSCKASGYTFTSYWMHWVRQAPGQGLEWIGEINPSIGRTNYNEKFKSRVTLTRDTSTSTAYMELSSLRSEDTAVYYCARRVYGTMDYWGQGTLVTVSS
VL: DIQMTQSPSSLSASVGDRVTITCKASQDINSYLSWFQQKPGKSPKLLIYRANIWVDGVPSRFSGSGSGQDYTFTISSLQPEDIATYYCLQYDELYTFGQGTKVEIK
notes: Humanized
Take B1: the Top in assay [1] was 0.254; in assay [2] it was 1.97; in assay [3], 1.96; in assay [4] it was 2.12; in assay [5], 1.6; in assay [6], 1.91. Also, the “Ratio(EC50)” value in assay [7] turned out to be 69.2 fold.
